Results as given in doi:10.1101/2022.12.06.519343.

Assays:
[1] = biological target: T1, GFP-His6::sExu531 (Drosophila melanogaster); test: SEC; conditions: remark: other sources report otherwise
T1 chain: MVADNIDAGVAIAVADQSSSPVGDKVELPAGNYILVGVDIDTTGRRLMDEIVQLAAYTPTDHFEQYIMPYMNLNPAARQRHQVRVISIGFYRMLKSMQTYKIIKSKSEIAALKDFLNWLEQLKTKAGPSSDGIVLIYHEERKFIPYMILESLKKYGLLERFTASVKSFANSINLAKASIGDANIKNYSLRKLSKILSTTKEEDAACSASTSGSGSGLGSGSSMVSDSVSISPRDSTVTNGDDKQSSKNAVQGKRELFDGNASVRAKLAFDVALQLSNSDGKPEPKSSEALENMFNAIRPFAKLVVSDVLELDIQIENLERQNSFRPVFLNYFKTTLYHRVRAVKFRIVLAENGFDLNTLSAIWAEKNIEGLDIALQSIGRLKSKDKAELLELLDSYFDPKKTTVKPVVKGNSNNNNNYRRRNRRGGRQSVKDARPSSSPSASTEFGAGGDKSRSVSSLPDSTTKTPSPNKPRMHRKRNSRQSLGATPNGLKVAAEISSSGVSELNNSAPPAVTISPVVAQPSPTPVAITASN

[2] = biological target: T1, GFP-His6::sExu531 (Drosophila …); test: SEC; conditions: remark: other sources report otherwise

B1: GFP-His6::sExu531 (natural protein)
chain: MVADNIDAGVAIAVADQSSSPVGDKVELPAGNYILVGVDIDTTGRRLMDEIVQLAAYTPTDHFEQYIMPYMNLNPAARQRHQVRVISIGFYRMLKSMQTYKIIKSKSEIAALKDFLNWLEQLKTKAGPSSDGIVLIYHEERKFIPYMILESLKKYGLLERFTASVKSFANSINLAKASIGDANIKNYSLRKLSKILSTTKEEDAACSASTSGSGSGLGSGSSMVSDSVSISPRDSTVTNGDDKQSSKNAVQGKRELFDGNASVRAKLAFDVALQLSNSDGKPEPKSSEALENMFNAIRPFAKLVVSDVLELDIQIENLERQNSFRPVFLNYFKTTLYHRVRAVKFRIVLAENGFDLNTLSAIWAEKNIEGLDIALQSIGRLKSKDKAELLELLDSYFDPKKTTVKPVVKGNSNNNNNYRRRNRRGGRQSVKDARPSSSPSASTEFGAGGDKSRSVSSLPDSTTKTPSPNKPRMHRKRNSRQSLGATPNGLKVAAEISSSGVSELNNSAPPAVTISPVVAQPSPTPVAITASN
stoichiometry N [1]: > 3 | stoichiometry N [2]: 3
